{
  "source": "patent US20100247590A1",
  "about": "“Peptide-Based Systems For Delivery Of Cosmetic Agents” (JOHNSON & JOHNSON, priority 2009, published 2010)",
  "binders": {"B1": {"name": "peptide HC260 (peptide)", "peptide": "MASGSDPSAQSQLPDKHSGLHERAPQRYGPEPEPEPEPIPEPPKEAPVVIEKPKPKPKPKPKPPAHDHKNQKETHQRHAAGSGGGGSPMLSENWLTNHPQNGGAGGAGMLSENWLTNHPQNGK", "modifications": "not checked"}},
  "target": "streptavidin (coated on iron oxide particles or on fluorescently-labeled polystyrene particles), P22629",
  "sequence (P22629 37-163 limits assumed)": "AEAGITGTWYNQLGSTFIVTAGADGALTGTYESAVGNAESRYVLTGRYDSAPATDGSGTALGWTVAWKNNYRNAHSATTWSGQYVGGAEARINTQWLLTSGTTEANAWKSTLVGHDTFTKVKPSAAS",
  "assay": "cell-based or functional assay",
  "data": [
    {"binder": "B1", "values": [
      {"measurement": "Color scale (0-5); sequential coloring of hair with streptavidin-coated iron oxide beads (color scale 0-5)", "result": 2}
    ]}
  ]
}
